In paper PMC4816226:

Target: biotinylated bovine serum albumin (bovine) (UniProt P02769)
Experiment: broad-band Mach-Zehnder interferometry (label-free, TE and TM phase shifts); multiplexed chip: mouse IgG (WGs 1, 4, 7, 10), biotinylated-BSA (WGs 2, 5, 8) and BSA blanks spotted on the sensing arms, blocked with BSA; 1 nM streptavidin in assay buffer (50 mM phosphate, pH 7.4, 10 g/L BSA) for 20 min, then 10 nM anti-mouse IgG antibody for 20 min; 20 ul/min

Chain of UniProt P02769 (P02769 25-607): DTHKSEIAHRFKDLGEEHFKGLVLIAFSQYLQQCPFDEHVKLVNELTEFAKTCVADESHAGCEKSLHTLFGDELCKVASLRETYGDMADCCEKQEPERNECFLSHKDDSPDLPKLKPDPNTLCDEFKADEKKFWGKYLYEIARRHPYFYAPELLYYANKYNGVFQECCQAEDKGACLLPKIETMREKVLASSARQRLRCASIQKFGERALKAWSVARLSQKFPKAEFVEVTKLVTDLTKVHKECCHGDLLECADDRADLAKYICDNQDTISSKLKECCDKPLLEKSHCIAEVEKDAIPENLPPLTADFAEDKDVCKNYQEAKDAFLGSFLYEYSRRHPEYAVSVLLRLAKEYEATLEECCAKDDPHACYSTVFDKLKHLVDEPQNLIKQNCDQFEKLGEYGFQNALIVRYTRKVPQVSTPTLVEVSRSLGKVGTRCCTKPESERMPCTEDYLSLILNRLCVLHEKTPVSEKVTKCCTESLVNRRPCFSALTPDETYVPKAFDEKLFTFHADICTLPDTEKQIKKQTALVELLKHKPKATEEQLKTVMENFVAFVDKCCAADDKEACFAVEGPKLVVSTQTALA

TE phase shift after 20 min with 1 nM streptavidin (interferometer 2): 4.48 radians
TE phase shift after 20 min with 1 nM streptavidin (interferometer 5): 4.56 radians
TE phase shift after 20 min with 1 nM streptavidin (interferometer 8): 4.25 radians
TM phase shift after 20 min with 1 nM streptavidin (interferometer 2): 6.02 radians
TM phase shift after 20 min with 1 nM streptavidin (interferometer 5): 6.87 radians
TM phase shift after 20 min with 1 nM streptavidin (interferometer 8): 5.73 radians
Substance: Immunopure Streptavidin (from UniProt P22629 25-183) (natural protein)
